One test has as its target T1, mouse TREM2 on cells (mouse, UniProt Q99NH8 19-227).
T1 construct: whole, on cells; Used for the recombinant protein on BWZ/BW cells (with mouse DAP12) and for the native protein on mouse macrophages and dendritic cells; the cell type stands under assay; also called mTREM2; mTrem2
T1 sequence (looked up): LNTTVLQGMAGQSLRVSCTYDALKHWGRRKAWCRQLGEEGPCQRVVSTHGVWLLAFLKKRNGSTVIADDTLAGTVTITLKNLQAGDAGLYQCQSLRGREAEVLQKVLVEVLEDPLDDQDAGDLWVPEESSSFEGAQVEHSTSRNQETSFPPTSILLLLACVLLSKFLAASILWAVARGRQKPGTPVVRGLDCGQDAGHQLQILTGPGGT
Kind of test: FACS, mTrem2 cells. For orientation: In flow cytometry, cells or beads pass a laser one at a time.

In test [1] the target is T2, human monomeric His tagged TREM2 protein (human, UniProt Q9NZC2 19-174).
T2 construct: also called hTREM2-HIS
T2 sequence: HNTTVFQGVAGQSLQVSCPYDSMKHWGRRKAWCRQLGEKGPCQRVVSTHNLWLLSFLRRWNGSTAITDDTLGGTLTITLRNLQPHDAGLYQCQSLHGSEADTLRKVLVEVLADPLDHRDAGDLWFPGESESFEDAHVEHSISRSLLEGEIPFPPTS
Kind of test: ForteBio or MSD-SET, monovalent. Background: In BLI a coated tip is dipped into the sample, and binding shifts an interference pattern.

For test [2], the target named is T3, mouse TREM2 Fc fusion protein (mouse, UniProt Q99NH8 19-171).
T3 construct: also called mTREM2-Fc; not shown: Fc part not specified
T3 sequence (looked up): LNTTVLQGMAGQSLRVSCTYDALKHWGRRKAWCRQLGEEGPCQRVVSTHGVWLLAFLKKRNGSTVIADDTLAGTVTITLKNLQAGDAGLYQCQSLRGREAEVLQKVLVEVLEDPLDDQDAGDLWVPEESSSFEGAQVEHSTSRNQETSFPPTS
Kind of test: ForteBio or MSD-SET, avid.

Test [3] addresses T4, human TREM2 Fc fusion protein (human, UniProt Q9NZC2 19-174).
T4 construct: also called hTREM2-Fc; not shown: Fc part not specified
T4 sequence: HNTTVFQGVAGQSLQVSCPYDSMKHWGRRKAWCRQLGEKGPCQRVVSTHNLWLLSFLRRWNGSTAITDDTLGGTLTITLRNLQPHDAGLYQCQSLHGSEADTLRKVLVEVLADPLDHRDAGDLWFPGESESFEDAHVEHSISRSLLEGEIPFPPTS
Kind of test: ForteBio or MSD-SET, avid.

B1: Ab13 (antibody, human IgG1, V domains shown)
VH: QVQLVQSGAEVKKPGASVKVSCKASGYTFTSYGISWVRQAPGQGLEWMGWISAYNGNTNYAQKLQGRVTMTTDTSTSTAYMELRSLRSDDTAVYYCARGPSHYYDLAWGQGTLVTVSS
VL: EIVLTQSPATLSLSPGERATLSCRASQSVSSYLAWYQQKPGQAPRLLIYDASNRATGIPARFSGSGSGTDFTLTISSLEPEDFAVYYCQQVSNYPITFGGGTKVEIK
notes: human IgG1
On to B1, for which the MFI with mouse TREM2 on cells was determined as 3250 MFI. Also, the Kd (as a rule, the equilibrium constant for the complex coming apart) came to 66.7 nM in test [1], 1.71 nM in test [2] and 1.49 nM in test [3].

B2: Ab38 (antibody, human IgG1, V domains shown)
VH: QVQLVESGGGVVQPGRSLRLSCAASGFTFSTYGMHWVRQAPGKGLEWVAVIWYDGSNKYYADSVKGRFTISRDNSKNTLYLQMNSLRAEDTAVYYCARGAPVDYGGIEPEYFQHWGQGTLVTVSS
VL: EIVLTQSPATLSLSPGERATLSCRASQSVSSYLAWYQQKPGQAPRLLIYDASNRATGIPARFSGSGSGTDFTLTISSLEPEDFAVYYCQQIDFLPYTFGGGTKVEIK
notes: human IgG1
In the test with mouse TREM2 on cells, B2 had an MFI of 297 MFI. In addition, the values for the Kd in test [1] and in test [3] were 13.1 nM and 0.96 nM, respectively. In addition, in test [2], the binding result was “no binding”.

B3: Ab48 (antibody, human IgG1, V domains shown)
VH: QVQLVQSGAEVKKPGASVKVSCKASGYTFTSYYMHWVRQAPGQGLEWMGIINPSGGSTTYAQKFQGRVTMTRDTSTSTVYMELSSLRSEDTAVYYCARPGKSMDVWGQGTTVTVSS
VL: EIVLTQSPATLSLSPGERATLSCRASQSVSSYLAWYQQKPGQAPRLLIYDASNRATGIPARFSGSGSGTDFTLTISSLEPEDFAVYYCQQRAAYPITFGGGTKVEIK
notes: human IgG1
Consider B3, for which, in the test with mouse TREM2 on cells, the MFI stood at 9770 MFI. Besides, the Kd was determined as 9.08 nM in test [1], 1.41 nM in test [2] and 0.35 nM in test [3].

B4: Ab47 (antibody, human IgG1, V domains shown)
VH: QVQLVQSGAEVKKPGASVKVSCKASGYTFTSYYMHWVRQAPGQGLEWMGIINPSGGSTTYAQKFQGRVTMTRDTSTSTVYMELSSLRSEDTAVYYCARPGKSMDVWGQGTTVTVSS
VL: EIVLTQSPGTLSLSPGERATLSCRASQSVSSYLAWYQQKPGQAPRLLIYDASNRATGIPARFSGSGSGTDFTLTISSLEPEDFAVYYCQQRILYPITFGGGTKVEIK
notes: human IgG1
For the molecule B4, the MFI in the test with mouse TREM2 on cells was 10100 MFI. Moreover, the figures for the Kd in test [1], in test [2] and in test [3] were 7.37 nM, 1.45 nM and 0.431 nM, respectively.

B5: Ab46 (antibody, human IgG1, V domains shown)
VH: QVQLVQSGAEVKKPGASVKVSCKASGYTFTSYYMHWVRQAPGQGLEWMGIINPSGGSTSYAQKFQGRVTMTRDTSTSTVYMELSSLRSEDTAVYYCARPAKTADYWGQGTLVTVSS
VL: EIVLTQSPATLSLSPGERATLSCRASQSVSSYLAWYQQKPGQAPRLLIYDSSNRATGIPARFSGSGSGTDFTLTISSLEPEDFAVYYCQQRSNYPITFGGGTKVEIK
notes: human IgG1
B5 displayed an MFI in the test with mouse TREM2 on cells of 4260 MFI. For the same molecule, the Kd was 16.8 nM in test [1], 2.46 nM in test [2] and 0.445 nM in test [3].

B6: Ab49 (antibody, human IgG1, V domains shown)
VH: QVQLVQSGAEVKKPGASVKVSCKASGYTFTSYYMHWVRQAPGQGLEWMGIINPSGGSTSYAQKFQGRVTMTRDTSTSTVYMELSSLRSEDTAVYYCARPAKTADYWGQGTLVTVSS
VL: EIVLTQSPATLSLSPGERATLSCRASQSVSSYLAWYQQKPGQAPRLLIYDASKRATGIPARFSGSGSGTDFTLTISSLEPEDFAVYYCQQRTSHPITFGGGTKVEIK
notes: human IgG1
The molecule B6 had an MFI in the test with mouse TREM2 on cells of 4320 MFI. Moreover, the Kd in test [1] came to 17.4 nM; in test [2], 2.08 nM; in test [3] it was 0.435 nM.

B7: Ab67 (antibody, human IgG1, V domains shown)
VH: QVQLVQSGAEVKKPGASVKVSCKASGYTFTSYYMHWVRQAPGQGLEWMGIINPSGGSTTYAQKFQGRVTMTRDTSTSTVYMELSSLRSEDTAVYYCARPGKSMDVWGQGTTVTVSS
VL: EIVLTQSPATLSLSPGERATLSCRASQSVSSYLAWYQQKPGQAPRLLIYDASNRATGIPARFSGSGSGTDFTLTISSLEPEDFAVYYCQQRSHFPITFGGGTKVEIK
notes: human IgG1
Consider B7, for which the MFI with mouse TREM2 on cells turned out to be 6210 MFI. The Kd in test [1] is 34.5 nM; in test [2], 2.92 nM; in test [3], 0.66 nM.

B8: Ab15 (antibody, human IgG1, V domains shown)
VH: QVQLQESGPGLVKPSQTLSLTCTVSGGSISSGGYYWSWIRQHPGKGLEWIGNIYYSGSTVYNPSLKSRVTISVDTSKNQFSLKLSSVTAADTAVYYCARGLYGYGVLDVWGQGTMVTVSS
VL: DIQMTQSPSSLSASVGDRVTITCQASQDISNYLNWYQQKPGKAPKLLIYDASNLETGVPSRFSGSGSGTDFTFTISSLQPEDIATYYCQQFDTYPTFGGGTKVEIK
notes: human IgG1
B8 registered an MFI in the test with mouse TREM2 on cells of 4760 MFI. Further, the figures for the Kd in test [1], in test [2] and in test [3] were 3.03 nM, 2.8 nM and 0.605 nM, respectively.

B9: Ab11 (antibody, human IgG1, V domains shown)
VH: EVQLVQSGAEVKKPGESLKISCKGSGYSFTTYWIGWVRQMPGKGLEWMGIIYPGDSDTRYSPSFQGQVTISADKSISTAYLQWSSLKASDTAMYYCARAGHYDGGHLGMDVWGQGTTVTVSS
VL: EIVLTQSPGTLSLSPGERATLSCRASQSVSSDYLAWYQQKPGQAPRLLIYGASSRATGIPDRFSGSGSGTDFTLTISRLEPEDFAVYYCQQDYSYPWTFGGGTKVEIK
notes: human IgG1
B9 registered an MFI with mouse TREM2 on cells of 5500 MFI. Moreover, the Kd in test [1] was found to be 7.2 nM; in test [2], 1.19 nM; in test [3], 0.934 nM.

B10: Ab50 (antibody, human IgG1, V domains shown)
VH: QVQLVQSGAEVKKPGASVKVSCKASGYTFTSYYIHWVRQAPGQGLEWMGIINPSGGSTSYAQKFQGRVTMTRDTSTSTVYMELSSLRSEDTAVYYCARAPQESPYVFDIWGQGTMVTVSS
VL: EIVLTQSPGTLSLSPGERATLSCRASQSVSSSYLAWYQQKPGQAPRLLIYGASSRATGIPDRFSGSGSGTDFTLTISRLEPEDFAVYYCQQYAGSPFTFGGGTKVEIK
notes: human IgG1
In the test with mouse TREM2 on cells, B10 came in with an MFI of 325 MFI. For the same molecule, the Kd in test [1] was determined as 36.4 nM; in test [3], 0.729 nM. Also, in test [2], the binding result is reported as “no binding”.

B11: Ab16 (antibody, human IgG1, V domains shown)
VH: QLQLQESGPGLVKPSETLSLTCTVSGGSISSNSYYWGWIRQPPGKGLEWIGSIYYSGSTYYNPSLKSRVTISVDTSKNQFSLKLSSVTAADTAVYYCARGVLGYGVFDYWGQGTLVTVSS
VL: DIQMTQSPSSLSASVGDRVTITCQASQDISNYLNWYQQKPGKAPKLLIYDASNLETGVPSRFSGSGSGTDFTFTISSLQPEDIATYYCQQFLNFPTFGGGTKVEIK
notes: human IgG1
For B11, the MFI with mouse TREM2 on cells stood at 6380 MFI. Besides, the figures for the Kd in test [1], in test [2] and in test [3] were 2.47 nM, 1.36 nM and 1.09 nM, respectively.

B12: Ab17 (antibody, human IgG1, V domains shown)
VH: QLQLQESGPGLVKPSETLSLTCTVSGGSISSNSYYWGWIRQPPGKGLEWIGSIYYSGSTYYNPSLKSRVTISVDTSKNQFSLKLSSVTAADTAVYYCARGVLGYGVFDYWGQGTLVTVSS
VL: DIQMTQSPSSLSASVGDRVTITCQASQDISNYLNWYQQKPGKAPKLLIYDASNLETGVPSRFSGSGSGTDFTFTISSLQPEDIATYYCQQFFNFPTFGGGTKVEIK
notes: human IgG1
For B12, the MFI in the test with mouse TREM2 on cells stood at 10300 MFI. The Kd is 3.46 nM in test [1], 1.67 nM in test [2] and 0.792 nM in test [3].

B13: Ab36 (antibody, human IgG1, V domains shown)
VH: QVQLVESGGGVVQPGRSLRLSCAASGFTFSTYGMHWVRQAPGKGLEWVAVIWYDGSNKYYADSVKGRFTISRDNSKNTLYLQMNSLRAEDTAVYYCARGTGAAAASPAFDIWGQGTMVTVSS
VL: EIVLTQSPATLSLSPGERATLSCRASQSVSSYLAWYQQKPGQAPRLLIYDASNRATGIPARFSGSGSGTDFTLTISSLEPEDFAVYYCQQLFDWPTFGGGTKVEIK
notes: human IgG1
The molecule B13 registered an MFI in the test with mouse TREM2 on cells of 1260 MFI. Further, the figures for the Kd in test [1] and in test [3] were 4.01 nM and 0.465 nM, respectively. In addition, the binding result in test [2] is listed as “no binding”.

B14: Ab44 (antibody, human IgG1, V domains shown)
VH: QVQLVESGGGVVQPGRSLRLSCAASGFTFSTYGMHWVRQAPGKGLEWVAVIWYDGSNKYYADSVKGRFTISRDNSKNTLYLQMNSLRAEDTAVYYCARGTGAAAASPAFDIWGQGTMVTVSS
VL: EIVMTQSPATLSLSPGERATLSCRASQSVSSYLAWYQQKPGQAPRLLIYDSSNRATGIPARFSGSGSGTDFTLTISSLEPEDFAVYYCQQLVHWPTFGGGTKVEIK
notes: human IgG1
Turning to B14, the MFI with mouse TREM2 on cells is 1210 MFI. Further, the figures for the Kd in test [1] and in test [3] were 9.46 nM and 0.562 nM, respectively. For the same molecule, the binding result in test [2] is on record as “no binding”.

B15: Ab12 (antibody, human IgG1, V domains shown)
VH: EVQLVQSGAEVKKPGESLKISCKGSGYSFTSYWIGWVRQMPGKGLEWMGIIYPGDSDTRYSPSFQGQVTISADKSISTAYLQWSSLKASDTAMYYCARLGHYSGTVSSYGMDVWGQGTTVTVSS
VL: DIQMTQSPSSLSASVGDRVTITCRASQSISSYLNWYQQKPGKAPKLLIYAASSLQSGVPSRFSGSGSGTDFTLTISSLQPEDFATYYCQQEYAVPYTFGGGTKVEIK
notes: human IgG1
B15 yielded an MFI in the test with mouse TREM2 on cells of 1550 MFI. Besides, the Kd in test [1] was determined as 2.68 nM; in test [2] it was 7.91 nM; in test [3], 1.19 nM.

B16: Ab40 (antibody, human IgG1, V domains shown)
VH: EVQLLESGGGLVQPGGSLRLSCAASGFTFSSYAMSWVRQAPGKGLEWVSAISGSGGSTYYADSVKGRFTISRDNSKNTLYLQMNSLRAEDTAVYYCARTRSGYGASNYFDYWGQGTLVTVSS
VL: DIQMTQSPSSLSASVGDRVTITCRASQSISSYLNWYQQKPGKAPKLLIYAASSLQSGVPSRFSGSGSGTDFTLTISSLQPEDFATYYCQQGYAAPITFGGGTKVEIK
notes: human IgG1
Consider B16, for which the MFI in the test with mouse TREM2 on cells came to 577 MFI. The Kd stood at 7.97 nM in test [1], 6.03 nM in test [2] and 0.197 nM in test [3].

The values are drawn from US20260209350A1 (Alector, published 2026).
